These results are taken from US7514233.

The assay concerns the target Recombinant HIV-1 integrase from pRP1012 with the His6 tag removed by thrombin (HIV-1) (UniProt P04585). Description: cell-based or functional assay.

“His6-tagged Inip76/LEDGF expressed in E. coli from pCP6H75 (pRSETB) (from UniProt O75475 2-530)”: the IN protein remaining soluble after 45 minutes incubation at 4° C. and centrifugation at 20000 g turned out to be 50%.
